In US20180282719A1 (published 2018):

T1: recombinant soluble human IL-6 receptor (SR344) (human, UniProt P08887 20-344, biotinylated (sites not given) where immobilized via streptavidin or used in phage ELISA)
T1 construct: also called soluble IL-6 receptor; membrane-type IL-6 receptor (when biotinylated and immobilized on the chip)
T1 sequence (looked up): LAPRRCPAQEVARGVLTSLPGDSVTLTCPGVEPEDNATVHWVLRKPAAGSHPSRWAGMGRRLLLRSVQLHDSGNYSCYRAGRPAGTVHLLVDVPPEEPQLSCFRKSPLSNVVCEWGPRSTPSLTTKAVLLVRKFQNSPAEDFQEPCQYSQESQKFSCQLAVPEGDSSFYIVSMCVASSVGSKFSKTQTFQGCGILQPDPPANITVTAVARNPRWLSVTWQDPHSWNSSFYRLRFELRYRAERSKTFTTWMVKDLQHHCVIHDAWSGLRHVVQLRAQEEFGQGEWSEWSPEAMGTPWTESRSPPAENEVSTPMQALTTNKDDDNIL

B1: H3pI/L73 (antibody, IgG1, V domains shown)
VH: QVQLQESGPGLVKPSETLSLTCAVSGHSISHDHAHSWVRQPPGEGLEWIGYISYSGITNYNPSLKGRVTISRDTSKNQFSLKLSSVTAADTAAYYCARSLARTTAMDYWGEGTLVTVSS
VL: DIQMTQSPSSLSASVGDSVTITCQASQHISSHLNWYQQKPGKAPELLIYYGSHLHSGVPSRFSGSGSGTDFTFTISSLEAEDAATYYCGQGNRLPYTFGQGTKVEIE
notes: tested as IgG1; also called H3pI/L73-IgG1; H3pl/L73
B2: H170/L82 (antibody, IgG1, V domains shown)
VH: QVQLQESGPGLVKPSETLSLTCAVSGHSISHHHAHSWVRQPPGEGLEWIGYISYSGITHYNPHLKGRVTISRDTSKNQFSLKLSSVTAADTAAYYCARVLARITAMDHWGEGTLVTVSS
VL: DIQMTQSPSSLSASVGDSVTITCQASQDISSHLNWYQQKPGKAPELLIYYGSHLHSGVPSRFSGSGSGTDFTFTISSLEAEDAATYYCGQGNRLPYTFGQGTKVEIE
notes: expressed and purified as IgG (IgG1); also called H170/L82-IgG1
B3: Fv4-IgG1 (antibody)
heavy: not shown
light: DIQMTQSPSSLSASVGDSVTITCQASTDISSHLNWYQQKPGKAPELLIYYGSHLLSGVPSRFSGSGSGTDFTFTISSLEAEDAATYYCGQGNRLPYTFGQGTKVEIERTVAAPSVFIFPPSDEQLKSGTASVVCLLNNFYPREAKVQWKVDNALQSGNSQESVTEQDSKDSTYSLSSTLTLSKADYEKHKVYACEVTHQGLSSPVTKSFNRGEC
notes: VH3-IgG1 / VL3-CK
B4: humanized PM1 antibody (wild type, WT) (antibody, human IgG1, kappa, V domains shown)
VH: QVQLQESGPGLVRPSQTLSLTCTVSGYSITSDHAWSWVRQPPGRGLEWIGYISYSGITTYNPSLKSRVTMLRDTSKNQFSLRLSSVTAADTAVYYCARSLARTTAMDYWGQGSLVTVSS
VL: DIQMTQSPSSLSASVGDRVTITCRASQDISSYLNWYQQKPGKAPKLLIYYTSRLHSGVPSRFSGSGSGTDFTFTISSLQPEDIATYYCQQGNTLPYTFGQGTKVEIKR
notes: IgG1; also called WT-IgG1; wild type humanized anti-IL-6 receptor antibody

Key:
[1] = biological target: T1, recombinant soluble human IL-6 receptor …; assay: SPR Biacore T100, antibody on protein A/G chip, SR344 analyte, 37 C
Protocol: (§1) Kinetic analyses of antigen-antibody reactions at pH 5.8 and pH 7.4 were carried out using a Biacore™ T100 surface plasmon resonance system (GE Healthcare) on the four antibodies: humanized PM1 antibody (WT) and H3pI/L73, CLH5/L73, and H170/L82 produced in Examples 2 and 4 (buffer: 10 mM MES (pH 7.4 or pH 5.8), 150 mM NaCl, and 0.05% TWEEN® 20 (polyoxyethelene sorbitan monolaurate)). Various antibodies were bound onto a sensor chip immobilized with recomb-protein A/G (Pierce) by amine coupling. SR344 adjusted to concentrations of 9.8 to 400 nM was injected to the chip as an analyte. […] All the measurements were carried out at 37° C. Association rate constants kₐ (1/Ms) and dissociation rate constants kd (1/s) were calculated using Biacore T100™ Evaluation Software (GE Healthcare), and dissociation constants KD (M) were calculated on the basis of those values (Table 5). Moreover, the ratio of the affinities at pH 5.8 and pH 7.4 were calculated for each clone to evaluate pH-dependent binding. All the measurements were carried out at 37° C.

[2] = biological target: T1, recombinant soluble human IL-6 receptor …; assay: SPR Biacore T100, antibody on protein A/G chip, SR344 analyte, pH 5.8, 37 C
Protocol: as §1

[3] = biological target: T1, recombinant soluble human IL-6 receptor …; assay: SPR Biacore T100, antibody on protein A/G chip, SR344 analyte, 37 C, ratio of pH 5.8 to pH 7.4
Protocol: as §1

[4] = biological target: T1, recombinant soluble human IL-6 receptor …; assay: SPR Biacore T100, antibody captured by anti-IgG gamma chain F(ab)2, SR344 analyte, pH 7.4, 37 C
Procedure, shortened: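 Antibodies were captured on an anti-IgG γ-chain F(ab)₂ chip, with SR344 at 9.8–40 nM injected in 10 mM MES pH 7.4, 150 mM NaCl, 0.05% Tween 20, at 37° C. Real-time association/dissociation gave ka and kd, from which KD was calculated.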

[5] = biological target: T1, recombinant soluble human IL-6 receptor …; assay: SPR Biacore T100, antibody on protein A/G chip, SR344 analyte, pH 5.8, 37 C; remark: listed apart in the source
Protocol: Kinetic analysis of antigen-antibody reactions at pH 7.4 and pH 5.8 was carried out using a Biacore T100™ surface plasmon resonance system (GE Healthcare) for the four types of antibodies prepared: WT-IgG1, H54/L28-IgG1, H170/L82-IgG1, and Fv4-IgG1 (buffer: 10 mM MES (pH 7.4 or pH 5.8), 150 mM NaCl, 0.05% Surfactant P20 (polyoxyethelene sorbitan monolaurate)). The antibodies were bound to a sensor chip on which recomb-protein A/G (Pierce) was immobilized by amine coupling, and SR344 adjusted to an appropriate concentration was injected therein as an analyte. The association with and dissociation from SR344 of each type of antibody were observed on a real-time basis. All the measurements were carried out at 37° C. Association rate constants kₐ (1/Ms) and dissociation rate constants kd (1/s) were calculated using Biacore T100™ Evaluation Software (GE Healthcare), and dissociation constants KD (M) were calculated based on those values (Table 17).

Binder	pH-dependent binding (affinity ratio) relative to WT [1] [fold]	Kd [2] [nM]	koff [2] [s⁻¹]	kon [2] [M⁻¹ s⁻¹]	KD (pH 5.8)/KD (pH 7.4) [3]	Kd [4] [nM]	koff [4] [s⁻¹]	kon [4] [M⁻¹ s⁻¹]	Kd [5] [nM]	koff [5] [s⁻¹]	kon [5] [M⁻¹ s⁻¹]
B1	15	57	0.0097	170000	41.3	1.4	0.00059	410000			
B2	> 15	640	0.017	26000	394				100	0.013	120000
B3						1.4	0.001	720000	26	0.037	1.4e+06
B4		5	0.0038	760000	2.4	2.7	0.0011	400000	3.1	0.0027	890000
